The target of the assay is PSD-95 PDZ1 mutant (ED6N) (UniProt P78352). Description: ITC. On the technique in general: ITC needs no label: the signal is the heat of the interaction.

The source of these data is paper PMC6842113.

Chain of PSD-95 PDZ1 mutant (ED6N) (P78352 60-151, change not shown): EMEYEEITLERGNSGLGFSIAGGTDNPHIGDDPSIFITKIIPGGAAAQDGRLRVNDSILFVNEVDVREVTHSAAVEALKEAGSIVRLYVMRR

B1: Stg_CT WT (domain or fragment)
chain: DRHKQLRATARATDYLQASAITRIPSYRYRYQRRSRSSSRSTEPSHSRDASPVGVKGFNTLPSTEISMYTLSRDPLKAATTPTATYNSDRDNSFLQVHNCIQKDSKDSLHANTANRRTTPV
B1: the fold weakening of binding against PDZ1 WT amounted to 8 fold.
